19 variants from the RNAGym collection of RNA variant scans (doi:10.1073/pnas.2313332121) can be followed below.

This sample holds only a part of the variants without activity.

B1: TPR 5TU (parent)
chain: GGAUCUUCUCGAUCUAACAAAAAAGACAAAUCUGCCACAAAGCUUGAGAGCAUCUUCGGAUGCAGAGGCGGCAGCCUUCGGUGGCGCGAUAGCGCCAACGUUCUCAACUAUGACACGCAAAACGCGUGCUCCGUUGAAUGGAGUUUAUCAUG

In the data set the parent is B1. The data set is described as follows: polymerase ribozyme fitness, log enrichment relative to wild type (log ratio); higher = more active; in vitro selection for triplet polymerase activity. In outline: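 Genotype fitness is the logarithm of its enrichment divided by wild-type enrichment, using inverse-variance-weighted averages of replicates. That logarithm is base 2. Enrichment was measured by Illumina sequencing of input and output libraries from one triplicate in vitro selection round, with frozen incubation at −7 °C, on PCR-built, transcribed mutant libraries of each subunit of a heterodimeric triplet polymerase ribozyme, retaining genotypes with ≥10 input reads and ≥1 read per output.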
As for GGAUCUUCUCGAUCUAACAAAAAAGACAAAUCUGCCACAAAGCUUGAGAGCAUCCUCGGAUGCAGAGGCGGCAGCCUUCGGUGGCGCGAUAGCGCCAGCGUUCUCAACUAUGUCACGCAAAACGCGUGCUCCGUUGAAUGGGGUUUAUCAUG, the “polymerase ribozyme fitness (log ratio)” value is -2.98. In the case of GGAUCUUCUCGAUCUAACACAAAAGACAAAUCUGCCACAAAGCUUGAGAGCAUCUUCGGAUGCAGAGGCGGCAGCCUUCGGUGGCGGGAUAGCCCCAAAGUUCUCAUGUAUGACACGCAAAACGCGUGCUCCGUUGAAUGGAGUUUAUCAUG it was not above -4.2. The figure for GGACCUUCUCGAUCUAACUAAAAAGACAAAUCUGCCACAAAGCUUGAGACCAUCUUCGGAUGCAGAGGCGGCAGCUUUCGGUGGCGCGAUAGCGCCAACGUUCUCAACUAUGACACGCAAAACGCGUGCUCCGUUGAAUGGAGGUUAUCAUG is not above -4.2; for GGAUCUUCUCGAUCUAACAAAAAAGACAAAUCUGCCACAAAGCUUGAGAGCAUUUACGGUUGCAGAGGCUGCAGCCUUCGGUGGCGCGAUAGCGCCAACGUUCUCAACUAUGACGCGCAAAACGCGUGCUCCGUUGAAUGGAGUUUAUCCUG it is not above -4.2. For the variant GGAUCUUCUCGAUCUAACAAAAAAGACAAAUCUGCCACAAAGCUUGAGAGCAUCUUCGGAUGCAGAGGCUGCAGCCUUCGGUGGCGCGAUAUCGCCAGCGUUCUCAACUAUGACACGCAAAACGCGUGCUCCGUUGAAUGGAGUUUCUCAUG, the “polymerase ribozyme fitness (log ratio)” value is not above -4.2. With GGAUCUUCUCGAUCUUACAAAAAAGACAAAUCUGCCACAAAGCUUGAGAGCAUCUUCGGAAGCAGAGGCGGCAACCUUCGGUGGCGCGAUAGCGCGAACGUUCUCAACUAUGACACGCAAAACGCGUGCUCCGUUGAAUGGAGUUUAUCAUG, the “polymerase ribozyme fitness (log ratio)” value is not above -4.2. As to GGAUCCUCUCGAUCUAACAAAAAAGACAAAUCUGCCAUAAAGCUUGAGAGCAUCUUCGGAUGCAGAGGCGGCAGGCUUCGGAGGCGCGAUAGCGCCAACGUUCUCAGCUAUGACACGCAGAACGCGUGCUCCAAUGAAUGGAGUUUAUCAUG, the “polymerase ribozyme fitness (log ratio)” value is not above -4.2. GGAUCUUCUCGAUCUAACAAAAAAGACAAAUCUGCCACAAAGCUUGAGAGCAUCUUCGGAUGCAGAGGCGGCAGCCUUCGGUGGCGCGAUAGCGCCAACGUUCUCAACUAUGACACGCAAAACGCGUACUCCGUUAAAUGGAGUUUAUCAUG: the “polymerase ribozyme fitness (log ratio)” value was -4.18.

Consider GGAUCUUCACGAUCUAACAAAAUAGACAAAUGUGCCACAAAGCUUGAGAGCAUGUUCGGAUGCAGAGGCGGCAGCCUUCGGUGGCGCGAUAUCGCCAACGCUCUCAACUAUGACACGCAAAACGCGUGCUCCGUUGAAUUGAGUUUAUCAUG, for which the “polymerase ribozyme fitness (log ratio)” value is not above -4.2. Turning to GGAUCUUCUCGAUAUAACCAAAAAGACAAAUCUGCCACAAAGCUUGAGAGCAUCUUCUGAUGCAGAGGCGGCAGCCUUCGGUGGCGCGUUAGCGCCAACGUUCUCAACUAUGACACGCAAAACGCGUGCUCCGUUGAAUGGAGUUUAUCAUG, the “polymerase ribozyme fitness (log ratio)” value was -2.28.

On to GGAUCUUCUCGAUCUAACAAAAAAGACAAAUCUGCCACAAAGCUUGAGAGCAUGUUCGAAUGCAGAGGCGGCAGCAUUCGGUGGGGCGAUAGCGCCAACGUUCUCAACUAUGACACGCAACAAGCGGGCUCCGUUGAAUCGAUUUUAUCCUG, for which the “polymerase ribozyme fitness (log ratio)” value is not above -4.2. As for GGAUCUUCUCGAUCCAACAAAAAAGACGAAUCUGCCACAAAGCUUGAGAGCAUCUUCGGAUGCAGAGGCGGCAGCCUUCGGUGGCGCGAUAGCGCCAACGUUCUCAACUAUGACACGCAAAACGCGUGCUCCGUUGAAUGGAGUUCAUCAUG, the “polymerase ribozyme fitness (log ratio)” value is not above -4.2.

For the variant GGAUCUUCGCGAUCUAGCAAAAAAGACAAAUCUGCCACAAGGCUUGAGAGCAACUUCGGAUGCAGAGGCGGCAGCCGUCGGUGUCGCGAUAGCGCCAACGUUCUCAACUAUGACAAGCAAAACGCGUGCUCCGUUGAAUGAAGUUUGUCAUG, the “polymerase ribozyme fitness (log ratio)” value is not above -4.2. For the variant GGAUCUUCUCGAUCUAACAAAAAAGACAAAUCUGCCACAAAGCUUGAGAGCAUCUUCGGAUGCAGAGGCGGCAGCUUUUGGUUGCGCGAUAGCACCAACGUUCUUAACUAUGACACGGAAAACGCGUGCUCGGUUAAAUGGAGUUUAUCAUG, the “polymerase ribozyme fitness (log ratio)” value was not above -4.2. For the variant GGAUCUUCUCGAUCUAACAAAAAAGACAAAUCUGCCACAAAGCUUGAGAGCAUCUUCGGAUGCAGAGGCGGCAGCGUUCGGUGGCGCGAUAGCGCAAACGUUCGCAACUAUCACACGCAAAACGCGUGCUCCGUUGAAUGGAGUUUAUCAUG, the “polymerase ribozyme fitness (log ratio)” value was not above -4.2. GGAUCUUCUCGAUCUAACAAAAAAGACAAAUCUGCCACAAAGCUUGAGAGCAUCUUCGGAUGCAGAGGCGGCAGCCUUCGGUGGCGCGAUAGCGCCAAUGUUCUCAACUAUGACACCCAAAACGCGUGCUCCGUUGAAUGGAGUUUAUCAUG: the “polymerase ribozyme fitness (log ratio)” value worked out at 0.786. On to GGAUCUUCUCGAUCUAACAAAAAAGACAAAUCUGCCACAAAGCUUGAGAGCAUCUUCGGAGGCAGAGGCGGCAGCAUCCGGUGGCGCCAUAGCGCCAACGUUCUCAACUAUGACACGCAAAACGCGUGCUCCGUUGAAUGGAGUUUAUCAUG, for which the “polymerase ribozyme fitness (log ratio)” value is not above -4.2.

In the case of GGAUCUUCUCGAUCUAACAAAAAUGACAAAUCUGCCACAAAGCUUGAGAGCAUCUUCGGAUGCAGAGGCGGCAGCCUUCGGUGUCGCGAUAGCGCCAACGUUCUCAACUAUGACACGCAAAACGCGUGCUCCGUUGAAUGGAGUUUAUCAUG, the “polymerase ribozyme fitness (log ratio)” value is -2.26.

As to GGAUCUUCUCGAUCGAACAAAAGAGACAAAUCUGCCACAAAGCUUGAGACGAUCUUCGGAUGGAGAGGCGGCAGCCUUCGGUGGCGCGAUAGCGCGAACGUUCUCAACUAUGACACGCAAAACGCGUGCUCCGUUGAAUGGAGUUUAUCAUG, the “polymerase ribozyme fitness (log ratio)” value is not above -4.2.
